Measurements as given in publication PMC5489123 (Journal of molecular biology, 2010).
Blank lines part the entries; values can stand above or below the molecule they belong to. Ends that are not written are not given here. * marks the point of attachment. Dansyl = CN(C)c1cccc2c(S(=O)(=O)*)cccc12

Key:
Tiam1 PDZ domain [1] = molecular target: T1, Tiam1 PDZ domain (Homo sapiens, UniProt Q13009); assay: NMR chemical shift titration of N-acetylated peptides; format: binding; details: Kd (Model)/Kd (peptide); both Kd by NMR titration
Tiam1 PDZ domain [2] = molecular target: T1, Tiam1 PDZ domain; assay: Fluorescence anisotropy binding assay of dansylated peptides
[3] = molecular target: T2, Tiam1 PDZ domain (residues 841-930) (human, UniProt Q13009 841-930); assay: NMR titration
[4] = molecular target: T2, Tiam1 PDZ domain (residues 841-930); assay: fluorescence polarisation
[5] = molecular target: T2, Tiam1 PDZ domain (residues 841-930); assay: fluorescence polarisation; remark: listed apart in the source

T2 sequence (Q13009 841-930): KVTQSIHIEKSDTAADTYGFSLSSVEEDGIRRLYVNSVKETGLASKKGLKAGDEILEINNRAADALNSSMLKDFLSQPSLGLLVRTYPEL
T1 sequence (Q13009 841-930): as above

Molecule: Ac-NKDKEYYV [Neurexin1]
Fold versus Model (Tiam1 PDZ domain [1]): 0.05
Kd (Tiam1 PDZ domain [2]): > 100 µM

Kd [3]: 112 ± 15 µM
B1: Model Tiam1-binding peptide, N-terminally acetylated (Ac-SSRKEYYA) (peptide)
peptide: Ac-SSRKEYYA

Kd [3]: 2400 ± 250 µM
B2: Neurexin-1 C-terminal peptide (residues 1470-1477), N-terminally acetylated (Ac-NKDKEYYV) (peptide)
peptide: Ac-NKDKEYYV

Kd [4]: 55.7 ± 3.6 µM
B3: Syndecan1(A→F) peptide, dansylated (dan-TKQEEFYF) (peptide)
peptide: Dansyl-TKQEEFYF

Kd [4]: 64.8 ± 5.9 µM
B4: Caspr4(F→A) peptide, dansylated (dan-ENQKEYFA) (peptide)
peptide: Dansyl-ENQKEYFA

Kd [5]: > 100 µM
B5: Model Tiam1-binding peptide, N-terminally dansylated (peptide)
peptide: Dansyl-SSRKEYYA

Kd [4]: 16.8 ± 5.4 µM
B6: Caspr4 C-terminal peptide (residues 1301-1308), N-terminally dansylated (dan-ENQKEYFF) (peptide)
peptide: Dansyl-ENQKEYFF

Kd [5]: > 100 µM
B7: Neurexin-1 C-terminal peptide (residues 1470-1477), N-terminally dansylated (peptide)
peptide: NKDKEYYV-OH
modifications: not fully specified (N-terminus)

Kd [4]: 26.9 ± 0.9 µM
B8: Syndecan1 C-terminal peptide (residues 303-310), N-terminally dansylated (dan-TKQEEFYA) (peptide)
peptide: Dansyl-TKQEEFYA
